Experimental data: PMC12421412

Molecular target: ectodomain of APP^695 (amyloid precursor protein)
Assay: SPR; ectodomain of APP^695 coupled to the sensor chip surface; purified SORLA ectodomains as analyte; neutral pH; data also analysed with EVILFIT

soluble mutant SORLA^N1358S ectodomain, hexa-His-tagged (from UniProt Q92673 82-2137) (domain or fragment)
SPR sensorgram peak (response units): 1650 RU

soluble wildtype SORLA ectodomain (Sortilin-related receptor with A-type repeats), hexa-His-tagged (from UniProt Q92673 82-2137) (domain or fragment)
SPR sensorgram peak (response units): 1750 RU
